{
  "source": "patent US20230057263A1",
  "target": "human CD3 epsilon (CD3ε) (human) (UniProt P07766)",
  "test": "flow cytometry on human T cells",
  "data": [
    {"substance": "OKT3 (antibody)", "values": [
      {"measurement": "EC50 (read off the curve)", "value": 0.03, "unit": "nM"}
    ]}
  ]
}
